In publication PMC10082759, “Shieldin complex assembly kinetics and DNA binding by SHLD3” (Communications Biology, 2022):
One block for each molecule: values may come before it.

Assays:
[1] = biological target: REV7 (Homo sapiens) (UniProt Q9UI95); details: cited from earlier work
[2] = biological target: T1, SHLD3 CTD (human, UniProt Q6ZNX1 140-250); assay: fluorescence anisotropy; Kd similar to the Shieldin complex; 20 mM Na-HEPES pH 7.5, 5% glycerol, 100 mM NaCl, 0.5 mM TCEP; 10 nM DNA, 30 min, room temperature; details: protein: recombinant, tags: MBP or GST tag, cleaved (PreScission)
T1 sequence: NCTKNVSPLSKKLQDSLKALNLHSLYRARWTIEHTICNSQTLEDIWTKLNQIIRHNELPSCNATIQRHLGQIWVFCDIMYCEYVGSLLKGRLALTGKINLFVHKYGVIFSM

[3] = biological target: T2, SHLD3;SHLD2 1-95;REV7 R124A (human;human;human, UniProt Q6ZNX1;Q86V20-2;Q9UI95 1-250;1-95;1-211, ||R124A); assay: fluorescence anisotropy; 20 mM Na-HEPES pH 7.5, 5% glycerol, 100 mM NaCl, 0.5 mM TCEP; 10 nM DNA, 30 min, room temperature; details: protein: recombinant;recombinant;recombinant, tags: tags cleaved (PreScission);GST tag, cleaved (PreScission);tags cleaved (PreScission), copies: 1;1;2
Target sequence in this assay (Q6ZNX1 whole entry, chain 1 of 3): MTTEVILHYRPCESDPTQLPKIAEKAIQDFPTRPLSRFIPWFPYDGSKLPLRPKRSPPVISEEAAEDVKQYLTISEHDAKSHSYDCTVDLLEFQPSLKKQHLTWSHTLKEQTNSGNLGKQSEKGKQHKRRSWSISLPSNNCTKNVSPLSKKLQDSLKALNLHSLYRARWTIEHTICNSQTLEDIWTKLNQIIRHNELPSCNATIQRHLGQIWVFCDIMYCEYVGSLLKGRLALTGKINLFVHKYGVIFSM
Target sequence in this assay (Q86V20 1-95, chain 2 of 3): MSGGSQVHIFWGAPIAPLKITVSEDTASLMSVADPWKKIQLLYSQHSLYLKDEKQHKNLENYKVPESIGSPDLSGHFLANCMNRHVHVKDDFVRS
Target sequence in this assay (Q9UI95 whole entry R124A, chain 3 of 3): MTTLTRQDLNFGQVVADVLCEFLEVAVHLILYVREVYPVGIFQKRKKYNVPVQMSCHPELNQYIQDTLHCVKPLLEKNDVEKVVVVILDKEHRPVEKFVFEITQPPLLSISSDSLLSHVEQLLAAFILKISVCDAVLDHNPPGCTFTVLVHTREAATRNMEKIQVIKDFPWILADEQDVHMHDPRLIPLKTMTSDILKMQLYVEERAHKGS

[4] = biological target: SHLD3 1-83;SHLD2 1-60;REV7 (human;human;human, UniProt Q6ZNX1;Q86V20-2;Q9UI95 1-83;1-60;1-211, del84-250||); assay: as above; details: protein: recombinant;recombinant;recombinant; tags: ;;; copies: 1;1;2; label: 5(6)-FAM
SHLD3 1-83;SHLD2 1-60;REV7, sequence (Q9UI95 whole entry, stated change not applied, one chain of several): as the sequence (Q9UI95 whole entry R124A, chain 3 of 3) above, with A124R counted along it

[5] = biological target: T3, preformed REV7^ΔN-SHLD3 (human, UniProt Q9UI95 15-211; Q6ZNX1 1-62); assay: SEC; 5 µM preformed REV7^ΔN-SHLD3 with 10 µM MBP-SHLD2^1–60 and MBP-REV7^core, 30 min on ice, Superdex-200 3.2/300 in buffer B; details: both partners purified
T3 construct: REV7 (MAD2L2), human, without the N-terminal 14 residues; as m8; SHLD3, human, residues 1-62; as m16; source: E. coli LOBSTR, purified components, complex formed beforehand; not shown: hexahistidine-MBP or GST, N-terminal, cleaved; GST, N-terminal, kept
T3 sequence (Q9UI95 15-211, stated change not applied, one chain of several): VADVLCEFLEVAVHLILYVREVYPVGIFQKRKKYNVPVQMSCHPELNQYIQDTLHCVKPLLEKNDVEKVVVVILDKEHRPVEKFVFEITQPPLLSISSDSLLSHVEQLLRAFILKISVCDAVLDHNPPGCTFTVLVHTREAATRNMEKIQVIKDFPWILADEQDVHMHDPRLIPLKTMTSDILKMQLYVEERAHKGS

[6] = biological target: T4, pre-formed GST-SHLD3^1–62-REV7 (human, UniProt Q6ZNX1 1-62; Q9UI95 1-211); assay: pull-down; MBP-SHLD2^1–60 as bait, five-minute incubation at 4 °C with REV7 and GST-SHLD3^1–62 or with pre-formed GST-SHLD3^1–62-REV7 and additional REV7; details: both partners purified
T4 construct: SHLD3, human, residues 1-62; as m16; REV7 (MAD2L2), human; as m1; also called GST-SHLD3^1–63-REV7 (methods); pre-formed REV7-SHLD3; source: E. coli LOBSTR, purified components, complex formed beforehand in the absence of SHLD2; not shown: GST, N-terminal, kept; hexahistidine-MBP or GST, N-terminal, cleaved
T4 sequence (Q9UI95 whole entry, the tested form may be a part, one chain of several): as the sequence (Q9UI95 whole entry R124A, chain 3 of 3) above, with A124R counted along it

[7] = biological target: T2, SHLD3;SHLD2 1-95;REV7 R124A; assay: analytical size-exclusion chromatography co-migration; excess DNA; 20 mM Na-HEPES pH 7.5, 5% glycerol, 100 mM NaCl, 0.5 mM TCEP; 10 nM DNA, 30 min, room temperature; details: protein: recombinant;recombinant;recombinant, tags: tags cleaved (PreScission);GST tag, copies: 1;1;2, label: 5(6)-FAM
Target sequence in this assay (Q9UI95 whole entry R124A, one chain of several): as the sequence (Q9UI95 whole entry R124A, chain 3 of 3) above

[8] = biological target: T5, REV7^WT (human, UniProt Q9UI95 1-211); assay: SPR; SHLD3^1–62 or REV3^1871–2014 immobilised on SCR HC30M chip by EDC-NHS; REV7 injected in two-fold dilutions; buffer B with 0.05% Tween 20; details: both partners purified
T5 construct: REV7 (MAD2L2), human; The methods say in general that the MBP or GST tag was cleaved with PreScission protease; here the protein is labelled without a tag; also called MAD2L2; wild-type REV7; source: E. coli LOBSTR, purified (metal chelating column, tag cleavage, SEC); not shown: hexahistidine-MBP or GST, N-terminal, cleaved
T5 sequence (Q9UI95 whole entry): as the sequence (Q9UI95 whole entry R124A, chain 3 of 3) above, with A124R counted along it

[9] = biological target: T6, REV7^R124A (human, UniProt Q9UI95 1-211, R124A); assay: as above; details: both partners purified
T6 construct: REV7 (MAD2L2), human; also called dimerization mutant; source: E. coli LOBSTR, purified (metal chelating column, tag cleavage, SEC); not shown: hexahistidine-MBP or GST, N-terminal, cleaved
T6 sequence (Q9UI95 whole entry R124A): as the sequence (Q9UI95 whole entry R124A, chain 3 of 3) above

[10] = biological target: REV7^R124A (human, UniProt Q9UI95 1-211, R124A); assay: SPR
[11] = label: 5(6)-FAM on strand 1, blunt

Molecule: REV7 (from UniProt Q9UI95)
Kd [1]: 2 µM

Molecule: AGTGCCAGTGCC (ssDNA) [non-telomeric ssDNA]
binding result ([2]; label: 5(6)-FAM): binds
Kd ([3]; label: 5(6)-FAM): 0.137 µM
binding result [4]: no binding

binding result [5]: binds
binding result [6]: binds
B1: MBP-SHLD2^1–60 (domain or fragment, human, UniProt Q86V20-2 1-60, looked up)
chain: MSGGSQVHIFWGAPIAPLKITVSEDTASLMSVADPWKKIQLLYSQHSLYLKDEKQHKNLE
notes: SHLD2, human, N-terminal residues 1-60; source: E. coli LOBSTR, purified; not shown: hexahistidine-MBP, N-terminal, kept

B2: non-telomeric dsDNA (dsDNA)
DNA 1: AGTGCCAGTGCC
DNA 2: GGCACTGGCACT
binding result [2, 11]: binds
Kd [3, 11]: 0.166 µM

Molecule: AAGGGGAGCGGGGGAGGATAATAGGAAGGGGAGCGGGGGAGGATAATAGG (ssDNA) [50 nt ssDNA]
binding result [7]: binds

Molecule: TTAGGGTTAGGG (ssDNA) [telomeric ssDNA]
binding result ([2]; label: 5(6)-FAM): binds
Kd ([3]; label: 5(6)-FAM): 0.207 µM

binding result [8]: binds
B3: REV3^1871–2014 (domain or fragment, human, UniProt O60673 1871-2014, looked up)
chain: TPRTANILKPLMSPPSREEIMATLLDHDLSETIYQEPFCSNPSDVPEKPREIGGRLLMVETRLANDLAEFEGDFSLEGLRLWKTAFSAMTQNPRPGSPLRSGQGVVNKGSSNSPKMVEDKKIVIMPCKCAPSRQLVQVWLQAKE
notes: REV3, human, residues 1871-2014 (holds RBM1 1875-1896 and RBM2 1991-2012); Named without a tag; the methods say in general that tags were cleaved; source: E. coli LOBSTR, purified; not shown: hexahistidine-MBP or GST, N-terminal, cleaved

binding result [9]: binds
Kd [8]: ~0.05 µM
Kd [10]: ~0.067 µM
B4: SHLD3^1–62 (domain or fragment, human, UniProt Q6ZNX1 1-62, looked up)
chain: MTTEVILHYRPCESDPTQLPKIAEKAIQDFPTRPLSRFIPWFPYDGSKLPLRPKRSPPVISE
notes: the methods say in general that tags were cleaved; also called SHLD3^RBM; source: E. coli LOBSTR, purified; not shown: hexahistidine-MBP or GST, N-terminal, cleaved

B5: dsTelo (dsDNA)
DNA 1: TTAGGGTTAGGG
DNA 2: CCCTAACCCTAA
binding result [2, 11]: binds
Kd [3, 11]: 0.18 µM
